Molecular target: recombinant LDLR protein, extracellular domain, immobilised on the QCM chip (human) (UniProt P01130)
Experiment: quartz crystal microbalance (QCM)

Substance | Kd | koff | kon
GP38, a secreted CCHFV glycoprotein (from UniProt Q8JSZ3 248-519) (natural protein) | 180 nM | – | –
Human Fc-tagged CCHFV Gc (Fc fusion) | 3.3 nM | 5.9e-05 s⁻¹ | 13000 M⁻¹ s⁻¹
unlabelled LDL from human plasma (complex) | 3 nM | 0.00112 s⁻¹ | 255000 M⁻¹ s⁻¹

— PMC11153131
